In series [1] the target is T1, full-length UVR8 (UV … LOCUS8) (Arabidopsis thaliana), Q9FN03.
T1 chain: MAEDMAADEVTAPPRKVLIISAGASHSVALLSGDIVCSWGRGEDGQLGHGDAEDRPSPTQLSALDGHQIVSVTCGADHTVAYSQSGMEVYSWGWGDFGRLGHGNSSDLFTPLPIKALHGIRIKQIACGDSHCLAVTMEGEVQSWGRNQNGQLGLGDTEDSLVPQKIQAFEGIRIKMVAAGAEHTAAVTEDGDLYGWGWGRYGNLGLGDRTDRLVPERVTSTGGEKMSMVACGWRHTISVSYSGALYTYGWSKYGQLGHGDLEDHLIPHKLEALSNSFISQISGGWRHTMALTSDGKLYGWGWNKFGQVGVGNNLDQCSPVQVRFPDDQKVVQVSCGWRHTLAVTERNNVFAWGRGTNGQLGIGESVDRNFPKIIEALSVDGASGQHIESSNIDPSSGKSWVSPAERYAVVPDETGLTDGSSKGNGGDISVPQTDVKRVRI
Kind of series: native MS; native ion mobility MS with nESI, sample in 250 mM ammonium acetate pH 6.8, 5–20 μM UVR8, in the absence of UV-B light. Conditions: remark: other sources report otherwise.

Series [2] concerns the molecule itself. Described as above.

B1: full-length UVR8 (UV … LOCUS8), Q9FN03 1-440 (natural protein)
chain: MAEDMAADEVTAPPRKVLIISAGASHSVALLSGDIVCSWGRGEDGQLGHGDAEDRPSPTQLSALDGHQIVSVTCGADHTVAYSQSGMEVYSWGWGDFGRLGHGNSSDLFTPLPIKALHGIRIKQIACGDSHCLAVTMEGEVQSWGRNQNGQLGLGDTEDSLVPQKIQAFEGIRIKMVAAGAEHTAAVTEDGDLYGWGWGRYGNLGLGDRTDRLVPERVTSTGGEKMSMVACGWRHTISVSYSGALYTYGWSKYGQLGHGDLEDHLIPHKLEALSNSFISQISGGWRHTMALTSDGKLYGWGWNKFGQVGVGNNLDQCSPVQVRFPDDQKVVQVSCGWRHTLAVTERNNVFAWGRGTNGQLGIGESVDRNFPKIIEALSVDGASGQHIESSNIDPSSGKSWVSPAERYAVVPDETGLTDGSSKGNGGDISVPQTDVKRVRI
Take B1: the stoichiometry N (in general, a count of units in the complex or per binding partner) in series [1] was determined as 2.

B2: UVR8 core domain (residues 12–381, UVR8^12–381) (domain or fragment, Arabidopsis thaliana, UniProt Q9FN03 12-381, looked up)
chain: APPRKVLIISAGASHSVALLSGDIVCSWGRGEDGQLGHGDAEDRPSPTQLSALDGHQIVSVTCGADHTVAYSQSGMEVYSWGWGDFGRLGHGNSSDLFTPLPIKALHGIRIKQIACGDSHCLAVTMEGEVQSWGRNQNGQLGLGDTEDSLVPQKIQAFEGIRIKMVAAGAEHTAAVTEDGDLYGWGWGRYGNLGLGDRTDRLVPERVTSTGGEKMSMVACGWRHTISVSYSGALYTYGWSKYGQLGHGDLEDHLIPHKLEALSNSFISQISGGWRHTMALTSDGKLYGWGWNKFGQVGVGNNLDQCSPVQVRFPDDQKVVQVSCGWRHTLAVTERNNVFAWGRGTNGQLGIGESVDRNFPKIIEALSVDG
notes: Homodimer in the dark, monomer after UV-B; also called truncated UVR8; source: E. coli Rosetta 2 (DE3) pLysS, purified (Ni-NTA, Strep-Tactin XT, cleaved from the resin with SUMO protease); not shown: 7xHis, N-terminal, cleaved; Strep II, N-terminal, cleaved; SUMO, N-terminal, cleaved
Consider B2, for which the “stoichiometry N” value in series [2] was determined as 2.

These data come from PMC6347689, “Native mass spectrometry reveals the conformational diversity of the UVR8 photoreceptor” (Proceedings of the National Academy of Sciences of the …, 2019).
